Reference: publication PMC7817217 (Proceedings of the National Academy of Sciences of the …, 2020)
Read-outs that look alike come from different tables or passages of the source.

Legend:
[1] = molecular target: SARS-CoV-2 spike protein receptor binding domain (RBD) (SARS-CoV-2, UniProt P0DTC2 319-541); experiment: SPR; conditions: both partners purified
[2] = molecular target: SARS-CoV-2 spike protein receptor binding domain (RBD) (SARS-CoV-2, UniProt P0DTC2 319-541); experiment: SPR; conditions: both partners purified; remark: listed apart in the source
[3] = molecular target: the molecule itself; experiment: crystal structure
[4] = molecular target: SARS-CoV-2 spike protein receptor binding domain (RBD) (SARS-CoV-2, UniProt P0DTC2 319-541); experiment: SPR

B1: bat ACE2 from Rhinolophus macrotis, expressed in E. coli and refolded (bACE2-Rm-E. coli) (domain or fragment)
chain: STTEDEAKKFLDKFNSKAEDLSYESSLASWDYNTNISDENVQKMDEAGAKWSAFYEEQSKLAKNYPLEEIQNDTVKRQLQILQQSGSPVLSEDKSKRLNSILNAMSTIYSTGKVCKPNNPQECLLLEPGLDNIMGTSKDYNERLWAWEGWRAEVGKQLRPLYEEYVVLKNEMARGYHYEDYGDYWRRDYETEESSGPGYSRDQLMKDVDRIFTEIKPLYEHLHAYVRAKLMDTYPLHISPTGCLPAHLLGDMWGRFWTNLYPLTVPFGQKPNIDVTDAMLNQGWDANRIFKEAEKFFVSVSLPKMTEGFWNKSMLTEPGDGRKVVCHPTAWDLGKGDFRIKMCTKVTMEDFLTAHHEMGHIQYDMAYASQPYLLRNGANEGFHEAVGEVMSLSVATPKHLKTMGLLSPDFREDDETEINFLLKQALNIVGTLPFTYMLEKWRWMVFKGEIPKEEWMKKWWEMKREIVGVVEPVPHDETYCDPASLFHVANDYSFIRYYTRTIFEFQFHEALCRIAQHNGPLHKCDISNSTDAGKKLHQMLSVGKSQAWTKTLEDIVDSRNMDVGPLLRYFKPLYTWLQEQNRKSYVGWNTDWSPYADQSIKVWISLKSALGEKAYEWNDNEMYLFRSSVAYAMREYFLKTKNQTILFGDENVWVSNLKPRISFNFHVTSPGNVSDIIPRPEVEGAIRMSRSRINDAFRLDDNSLEFLGIQPTLGPPYQPPVTI
Question: Which koff [1] does the source give for B1 here?
Answer: 0.132 s⁻¹

Question: What about the kon [1] of the same binder?
Answer: 102000 M⁻¹ s⁻¹

B2: bACE2-Rm (bat ACE2 from Rhinolophus macrotis) expressed in E. coli, residues 19 to 741 (domain or fragment)
chain: B1 chain
notes: also called bACE2-Rm-E. coli; bat ACE2-E. coli
Question: How did the Kd [2] turn out when B2 was run?
Answer: 1.3 µM

Question: Does B2 bind [3]?
Answer: binds

B3: bACE2 from Rhinolophus affinis (bACE2-Ra) (receptor)
chain: STTEDRAKIFLDNFNHEAEDLSYQSSLASWEYNTNISDENVQKMDEAGAKWSAFYEEQSKLAKNYPLEEIQTVPVKLQLQILQQSGSPVLSEDKSKRLNSILNAMSTIYSTGKVCKPNNPQECFLLEPGLDNIMGTSKDYNERLWAWEGWRAEVGKQLRPLYEEYVVLKNEMARGYHYEDYGDYWRRDYETEESSGSGYSRDQLMKDVDRIFTEIKPLYEHLHAYVRTKLMDTYPFHISPTGCLPAHLLGDMWGRFWTNLYPLTVPFGQKPNIDVTDAMVNQGWDANRIFKEAEKFFVSVGLPNMTEGFWNNSMLTEPGDGRKVVCHPTAWDLGKGDFRIKMCTKVTMEDFLTAHHEMGHIQYDMAYATQPYLLRNGANEGFHEAVGEVMSLSVATPKHLKTMGLLSPDFLEDNETEINFLLKQALNIVGTLPFTYMLEKWRWMVFRGEIPKEEWMKKWWEMKRDLVGVVEPVPHDETYCDPASLFHVANDYSFIRYYTRTIFEFQFHEALCRIAQHDGPLHKCDISNSTDAGKKLHQMLSVGKSQPWTVTLKDIVDSRNMDVGPLLRYFEPLYTWLQEQNRKSHVGWNTDWSPYSD
Question: With B3 as the binder, how does the Kd [4] read?
Answer: 0.44 µM

B4: bat ACE2 from Rhinolophus macrotis, expressed in insect cells (bACE2-Rm-insect) (domain or fragment)
chain: STTEDEAKKFLDKFNSKAEDLSYESSLASWDYNTNISDENVQKMDEAGAKWSAFYEEQSKLAKNYPLEEIQNDTVKRQLQILQQSGSPVLSEDKSKRLNSILNAMSTIYSTGKVCKPNNPQECLLLEPGLDNIMGTSKDYNERLWAWEGWRAEVGKQLRPLYEEYVVLKNEMARGYHYEDYGDYWRRDYETEESSGPGYSRDQLMKDVDRIFTEIKPLYEHLHAYVRAKLMDTYPLHISPTGCLPAHLLGDMWGRFWTNLYPLTVPFGQKPNIDVTDAMLNQGWDANRIFKEAEKFFVSVSLPKMTEGFWNKSMLTEPGDGRKVVCHPTAWDLGKGDFRIKMCTKVTMEDFLTAHHEMGHIQYDMAYASQPYLLRNGANEGFHEAVGEVMSLSVATPKHLKTMGLLSPDFREDDETEINFLLKQALNIVGTLPFTYMLEKWRWMVFKGEIPKEEWMKKWWEMKREIVGVVEPVPHDETYCDPASLFHVANDYSFIRYYTRTIFEFQFHEALCRIAQHNGPLHKCDISNSTDAGKKLHQMLSVGKSQAWTKTLEDIVDSRNMDVGPLLRYFKPLYTWLQEQNRKSYVGWNTDWSPYAD
Question: B4 was tested. Which koff [1] did it give?
Answer: 0.0692 s⁻¹

B5: bACE2-Rm (bat ACE2 from Rhinolophus macrotis) expressed in insect cells, residues 19 to 615 (domain or fragment)
chain: B4 chain
Question: For B5, which Kd [2] is on record?
Answer: 1.5 µM

B6: bat ACE2 from Rhinolophus macrotis fused to the mouse Fc tag (bACE2-Rm-mFc) (Fc fusion)
chain: B4 chain
Question: With B6 as the binder, how does the koff [1] read?
Answer: 0.137 s⁻¹

B7: bACE2-Rm residues 19 to 615 fused to the mouse Fc tag (bACE2-Rm-mFc) (Fc fusion)
chain: B4 chain
notes: also called bACE2-Rm-HEK293T cells; bACE2-Rm-WT
Question: Which Kd [2] does the source give for B7 here?
Answer: 2.78 µM
